From publication PMC7717579, “Phosphoregulation of HORMA domain protein HIM-3 promotes asymmetric synaptonemal complex disassembly in meiotic prophase in Caenorhabditis elegans” (PLoS Genetics, 2020) come the findings set out here.

B1: HIM-3 closure motif peptide phosphorylated at Tyr279, fluorescein-tagged (peptide)
chain: RDSP[pY]GLSQGITKKNKD
modifications: also: fluorescein (FITC) conjugated, site not given here
B2: HIM-3 closure motif peptide, unmodified (wild type), fluorescein-tagged (peptide)
chain: RDSPYGLSQGITKKNKD
modifications: also: fluorescein (FITC) conjugated, site not given here
B3: HIM-3 closure motif peptide with the S282A substitution, fluorescein-tagged (peptide)
chain: RDSPYGLAQGITKKNKD
modifications: also: fluorescein (FITC) conjugated, site not given here

Non-standard residues stand in square brackets, D forms with d. No end group written: not given here. pY = N[C@@H](Cc1ccc(OP(=O)(O)O)cc1)C(=O)O

The target in the experiment is T1, HTP-2 protein (full length) (C. elegans).
T1 construct: HTP-2, HORMA domain protein of the meiotic chromosome axis, C. elegans, full length; also called HTP-2 proteins
Briefly: fluorescence polarisation; 50 nM FITC peptide with various concentrations of HTP-2; 20 mM Tris pH 7.5, 300 mM NaCl, 10% glycerol, 1 mM DTT, 0.1% NP-40; 1 hour at room temperature; 384-well plates; single-site binding model. As to conditions: both partners purified. In general terms: Fluorescence polarisation rises when a labelled molecule tumbles more slowly, as on binding a larger partner.
With B1, binding was characterised by a dissociation constant (Kd) of 16.1 µM.

As for B2, the Kd (commonly the concentration at which binding is half-saturated) came to 5.8 µM.

For B3, the affinity, expressed as Kd, was 11.3 µM.
